The results in this text go back to CN116514981A (JIANGSU QUANXIN BIOMEDICAL CO LTD, dated 2023).

One experiment concerns the target T1, 人IL-12 (Bio IL-12) (human, UniProt P29459 23-219; P29460 23-328, biotin-labelled (Bio IL-12); sites not stated).
T1 construct: the p35 subunit is supplied from general knowledge
T1 sequence (looked up) 1: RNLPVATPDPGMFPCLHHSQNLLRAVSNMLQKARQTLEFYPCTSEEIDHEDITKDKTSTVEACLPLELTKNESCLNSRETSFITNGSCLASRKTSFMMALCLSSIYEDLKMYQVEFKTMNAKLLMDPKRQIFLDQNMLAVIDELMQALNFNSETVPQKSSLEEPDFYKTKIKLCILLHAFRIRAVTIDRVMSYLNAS
T1 sequence (looked up) 2: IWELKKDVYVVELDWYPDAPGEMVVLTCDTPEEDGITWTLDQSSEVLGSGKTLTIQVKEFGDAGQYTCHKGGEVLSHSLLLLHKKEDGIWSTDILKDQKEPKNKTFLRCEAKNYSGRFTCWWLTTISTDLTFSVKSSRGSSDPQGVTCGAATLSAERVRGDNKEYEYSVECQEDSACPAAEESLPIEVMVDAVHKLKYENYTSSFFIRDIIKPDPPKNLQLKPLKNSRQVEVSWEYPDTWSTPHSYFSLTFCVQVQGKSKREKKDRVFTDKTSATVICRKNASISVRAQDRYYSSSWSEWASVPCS
The experiment in a line: ELISA: Bio IL-12 at 1 μg/ml captured on Neutravidin, antibody in serial dilution.

For another experiment, the target named is T2, 人IL-23 (Bio IL-23) (human, UniProt Q9NPF7 20-189; P29460 23-328, biotin-labelled (Bio IL-23); sites not stated).
T2 construct: also called hIL-23
T2 sequence (looked up) 1: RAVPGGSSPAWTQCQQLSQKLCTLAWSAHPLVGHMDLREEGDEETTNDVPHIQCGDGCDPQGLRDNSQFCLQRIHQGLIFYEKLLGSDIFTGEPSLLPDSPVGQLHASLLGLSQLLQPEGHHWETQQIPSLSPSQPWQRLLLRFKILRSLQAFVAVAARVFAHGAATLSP
T2 sequence (looked up) 2: T1 sequence (looked up) 2
The experiment in a line: ELISA: Bio IL-23 at 1 μg/ml captured on Neutravidin, antibody in serial dilution. For orientation: In an ELISA, binding on a coated surface is turned into a signal by an enzyme label.

B1: 抗人IL-23P19单克隆抗体(第一抗体) (antibody, V domains shown)
VH: QEQLEESGGGLVKPGGTLTLTCKASGFDFTTYNYMCWVRQAPGKGLEWIACIYTTKTNTWYASWAKGRFTISKTSSTTVTLQMTSLTAADTATYFCARGGWDNLSLWGPGTLVTVSS
VL: AALTQTPASVSAAVGGTVTIKCQSSQSVYSNNYLAWYQQKPGQPPKVLIYAASTLASGVPSRFSGSGSGTQFTLTISGVQCDDAATYYCLGGYDDDAVFGGGTEVVVKG
notes: also called 抗人IL-23第一抗体; 包被抗体
B1: the binding result in the experiment with 人IL-12 (Bio IL-12) is listed as “no binding”; with 人IL-23 (Bio IL-23), “binds”.
